Tests used:
[1] = system: RsmQ (Pseudomonas fluorescens SBW25 plasmid pQBR103); test: SPR; conditions: SPR (ReDCaT SA chip, Biacore 8K): 10 mM HEPES, 150 mM NaCl, 3 mM EDTA, 0.05% Tween 20, pH 7.4, 20 C, RsmQ 100 and 1000 nM (Fig 4: 100-1000 nM)
[2] = system: RsmQ R44A (Pseudomonas fluorescens SBW25 plasmid pQBR103); test: SPR; conditions: 100 nM protein; listed as None 2; SPR (ReDCaT SA chip, Biacore 8K): 10 mM HEPES, 150 mM NaCl, 3 mM EDTA, 0.05% Tween 20, pH 7.4, 20 C; RsmQ 100 and 1000 nM (Fig 4: 100-1000 nM)
[3] = system: RsmQ H43A (Pseudomonas fluorescens SBW25 plasmid pQBR103); test: SPR; conditions: 100 nM protein; listed as None 2; SPR (ReDCaT SA chip, Biacore 8K): 10 mM HEPES, 150 mM NaCl, 3 mM EDTA, 0.05% Tween 20, pH 7.4, 20 C; RsmQ 100 and 1000 nM (Fig 4: 100-1000 nM)
RsmQ = target: T1, RsmQ (Pseudomonas fluorescens SBW25 plasmid …, UniProt UPI00015066B5 1-62); test: SPR (ReDCaT); 500 nM protein; HBS-EP+ (10 mM HEPES, 150 mM NaCl, 3 mM EDTA, 0.05% v/v Tween 20, pH 7.4), 20 C, Biacore 8K, ReDCaT SA chip; high values mean tight binding; conditions: protein: recombinant; tags: C-terminal TEV site + 6xHis; chain copies: 2
T1 sequence: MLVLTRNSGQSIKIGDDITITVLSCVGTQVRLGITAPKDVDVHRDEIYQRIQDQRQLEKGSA

AAGACCAGATCCAGGGATATGACGACGCACCTACCCTACGTCCTCCTGC [PFLU5652]
binding signal [1]: < 50 %Rmax

TCTGTAATGACCACGGAAAAAGTGAAGTACCTACCCTACGTCCTCCTGC [PFLU4891]
binding signal [1]: < 50 %Rmax

TATAAGACTCGTACCCCGGAGCGCTCTCGCCTACCCTACGTCCTCCTGC [PFLU4968]
binding signal [1]: < 50 %Rmax

GACATTAATCATATGGAGACACCCTCATGCCTACCCTACGTCCTCCTGC [PFLU4688]
binding signal [1]: < 50 %Rmax

TCATTACCCTGCAGGGACCAAATCAACTGCCTACCCTACGTCCTCCTGC [PFLU5860]
binding signal [1]: < 50 %Rmax

GGGAAAAAATGTGGGCGGGTCATACCGCCCCTTTTTTTCCTACCCTACGTCCTCCTGC [RsmZ 127-end]
binding signal ([1]; mean of 1.178 and 0.729): 0.95 %Rmax

ACTCAACCAGGAATAAGGAATACAAGAAACCTACCCTACGTCCTCCTGC [PFLU0296]
binding signal [1]: < 50 %Rmax

AACGGTTCAAATATTCAGAGGATCCAGCTCCTACCCTACGTCCTCCTGC [PFLU6118]
binding signal [1]: < 50 %Rmax

CCGCGCAGGAAGCGCAAACCCTACCCTACGTCCTCCTGC [Bind_HP (GGA hairpin)]
binding signal ([1]; 100 nM protein, mean of 102.98 and 94.19): 98.6 %Rmax

CCGCGCACCCAGCGCAAACCCTACCCTACGTCCTCCTGC [NoBind_HP_2]
binding signal [2]: -1.89 %Rmax
binding signal [3]: -2.51 %Rmax
binding signal ([1]; 100 nM protein, mean of 0.445 and 0.102, listed as None 2): 0.27 %Rmax

GAAGACTTCGGCATGGAAGCGGCGCGAACCCTACCCTACGTCCTCCTGC [PFLU4726]
binding signal ([1]; up to 1000 nM protein): > 50 %Rmax

CGCATCATTTACATGGAAGCGAGTAATCACCTACCCTACGTCCTCCTGC [PFLU3467]
binding signal [1]: < 50 %Rmax

CGCCCGTGATCCCATGGAAACTCGAAGACTCCTACCCTACGTCCTCCTGC [PFLU0998]
binding signal [1]: < 50 %Rmax

CACCAACCCTGCACGTGGAGAGAACAACACCTACCCTACGTCCTCCTGC [PFLU5567]
binding signal [1]: < 50 %Rmax

AGTCCTTTAGGCAAGGAGTTAATTGTCGTCCTACCCTACGTCCTCCTGC [PFLU5529]
binding signal [1]: < 50 %Rmax

GGAAGTTTTACTAGGGAAGTTGCTATTGCCCTACCCTACGTCCTCCTGC [PFLU4443 (fleQ)]
binding signal ([1]; up to 1000 nM protein): > 50 %Rmax

TTCTAATCGCCTAAGGAGCATTGAGATGTCCTACCCTACGTCCTCCTGC [PFLU4548]
binding signal [1]: < 50 %Rmax

TTATTATTCGCCAGGGACGGCATTCGGGGCCTACCCTACGTCCTCCTGC [PFLU3378]
binding signal ([1]; up to 1000 nM protein, highest of the genomic oligos): > 50 %Rmax

CGCCATTCTTCAAGGGAGAGCCGTGTGGCCCTACCCTACGTCCTCCTGC [PFLU1516]
binding signal ([1]; up to 1000 nM protein): > 50 %Rmax

GTGAGGACTTTAATGGACGACAACAAGAACCTACCCTACGTCCTCCTGC [PFLU1189]
binding signal [1]: < 50 %Rmax

GAAACATTCCGAACGGAGAAAAAACTGGCCCTACCCTACGTCCTCCTGC [PFLU2486]
binding signal [1]: < 50 %Rmax

AACAATAATGCACATGGAGTAGCGTCGATGCCTACCCTACGTCCTCCTGC [PFLU0923]
binding signal ([1]; up to 1000 nM protein): > 50 %Rmax

TGCCCCCTTCAGATGGAGTTTCCCCCCGCCCTACCCTACGTCCTCCTGC [PFLU5986]
binding signal [1]: < 50 %Rmax

B1: Bind_HP (GGA hairpin) (structured_DNA)
DNA: CCGCGCAGGAAGCGCAAAC
binding signal (RsmQ): 97.319 ± 0.0324 %Rmax

B2: PFLU5864 (ssDNA)
DNA: CTGCGCTCCCGATCCTGGATTTTCCGGCC
binding signal (RsmQ): 19.55 ± 0.081 %Rmax

B3: PFLU1516 (ssDNA)
DNA: CGCCATTCTTCAAGGGAGAGCCGTGTGGC
binding signal (RsmQ): 63.68 ± 0.594 %Rmax

B4: PFLU0923 (ssDNA)
DNA: AACAATAATGCACATGGAGTAGCGTCGATG
binding signal (RsmQ): 76.5 ± 1.26 %Rmax

B5: PFLU4548 (ssDNA)
DNA: TTCTAATCGCCTAAGGAGCATTGAGATGT
binding signal (RsmQ): 25.35 ± 0.144 %Rmax

B6: PFLU5529 (ssDNA)
DNA: AGTCCTTTAGGCAAGGAGTTAATTGTCGT
binding signal (RsmQ): 41.03 ± 0.156 %Rmax

B7: PFLU3378 (structured_DNA)
DNA: TTATTATTCGCCAGGGACGGCATTCGGGG
binding signal (RsmQ): 130.9 ± 0.261 %Rmax

B8: PFLU2358 (ssDNA)
DNA: CAAAAATATAAATACCCGCGGGTGAAGTC
binding signal (RsmQ): 21.4 ± 0.255 %Rmax

B9: PFLU4968 (ssDNA)
DNA: TATAAGACTCGTACCCCGGAGCGCTCTCG
binding signal (RsmQ): 17.5 ± 0.242 %Rmax

B10: PFLU3467 (ssDNA)
DNA: CGCATCATTTACATGGAAGCGAGTAATCA
binding signal (RsmQ): 26.05 ± 0.116 %Rmax

B11: PFLU6118 (ssDNA)
DNA: AACGGTTCAAATATTCAGAGGATCCAGCT
binding signal (RsmQ): 21.2 ± 0.215 %Rmax

B12: PFLU5652 (ssDNA)
DNA: AAGACCAGATCCAGGGATATGACGACGCA
binding signal (RsmQ): 24.3 ± 0.196 %Rmax

B13: PFLU4414 (ssDNA)
DNA: TCCAGTTTAGGCTTCTAAGGAGCACACCC
binding signal (RsmQ): 24 ± 0.491 %Rmax

B14: PFLU5986 (ssDNA)
DNA: TGCCCCCTTCAGATGGAGTTTCCCCCCGC
binding signal (RsmQ): 23.9 ± 0.356 %Rmax

B15: PFLU4726 (ssDNA)
DNA: GAAGACTTCGGCATGGAAGCGGCGCGAAC
binding signal (RsmQ): 52.22 ± 0.504 %Rmax

B16: PFLU0998 (ssDNA)
DNA: CGCCCGTGATCCCATGGAAACTCGAAGACT
binding signal (RsmQ): 19.2 ± 0.463 %Rmax

B17: PFLU4891 (ssDNA)
DNA: TCTGTAATGACCACGGAAAAAGTGAAGTA
binding signal (RsmQ): 28.28 ± 0.104 %Rmax

B18: PFLU4688 (ssDNA)
DNA: GACATTAATCATATGGAGACACCCTCATG
binding signal (RsmQ): 18.86 ± 0.102 %Rmax

B19: PFLU5860 (ssDNA)
DNA: TCATTACCCTGCAGGGACCAAATCAACTG
binding signal (RsmQ): 23.7 ± 0.45 %Rmax

B20: PFLU4443 (fleQ) (ssDNA)
DNA: GGAAGTTTTACTAGGGAAGTTGCTATTGC
binding signal (RsmQ): 83.36 ± 0.145 %Rmax

B21: Full_Bind_HP (ACGGA hairpin) (structured_DNA)
DNA: CCGCGCACGGAAGCGCAAAC
binding signal (RsmQ): 61.28 ± 0.301 %Rmax

B22: PFLU1189 (ssDNA)
DNA: GTGAGGACTTTAATGGACGACAACAAGAA
binding signal (RsmQ): 24.64 ± 0.224 %Rmax

B23: PFLU5567 (ssDNA)
DNA: CACCAACCCTGCACGTGGAGAGAACAACA
binding signal (RsmQ): 19.8 ± 0.479 %Rmax

B24: PFLU0296 (ssDNA)
DNA: ACTCAACCAGGAATAAGGAATACAAGAAA
binding signal (RsmQ): 29.5 ± 0.904 %Rmax

B25: PFLU2486 (ssDNA)
DNA: GAAACATTCCGAACGGAGAAAAAACTGGC
binding signal (RsmQ): 19.6 ± 0.424 %Rmax

B26: PFLU3427 (ssDNA)
DNA: GGCCGCCCTCTCCGCTGATGGTCGTCTCG
binding signal (RsmQ): 14.53 ± 0.0808 %Rmax
